Results: patent US20090208538A1

Experiments:
[1] = molecular target: HLA-A*0201 (human); assay: iTopia binding
[2] = molecular target: HLA-A*0201 (human); assay: iTopia net score
[3] = molecular target: HLA-A*0201 (human); assay: iTopia affinity

binding vs positive control [1]: > 30%
iScore [2]: 0.352
ED50 [3]: 1 µM
Substance: cdr2 246-254 RALELEAV (peptide)
